Assay results as given in patent publication US20160272683A1 (Novo Nordisk, published 2016).
Blank lines part the entries; values can stand above or below the binder they belong to. Numbered stars: 1 amine (or outer) side, 2 acyl side, 3 side chain; on linkers, the order of the positions; unused ones are H or OH. * marks the point of attachment. C20 diacid = O=C(O)CCCCCCCCCCCCCCCCCCC(=O)*; γGlu = O=C(O)[C@H](CCC(=O)[*:2])N[*:1]

Molecular target: T1, human calcitonin receptor (human, UniProt P30988 25-474)
T1 construct: whole, on cells; also called hCT-R; hCTR
T1 sequence (looked up): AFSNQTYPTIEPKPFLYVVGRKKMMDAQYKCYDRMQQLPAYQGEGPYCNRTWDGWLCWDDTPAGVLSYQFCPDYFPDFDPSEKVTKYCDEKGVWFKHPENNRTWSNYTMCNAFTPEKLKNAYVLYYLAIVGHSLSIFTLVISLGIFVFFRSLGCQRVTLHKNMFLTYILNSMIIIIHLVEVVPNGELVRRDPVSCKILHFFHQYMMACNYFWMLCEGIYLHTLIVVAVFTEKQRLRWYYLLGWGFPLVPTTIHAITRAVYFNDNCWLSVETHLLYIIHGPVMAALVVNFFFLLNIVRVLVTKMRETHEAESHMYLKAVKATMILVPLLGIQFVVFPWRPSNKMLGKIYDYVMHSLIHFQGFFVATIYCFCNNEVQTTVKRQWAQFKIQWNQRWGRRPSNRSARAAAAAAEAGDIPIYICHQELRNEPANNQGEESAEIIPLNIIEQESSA
Assay: whole-cell competition vs 125I-human calcitonin (Assay VIIa)
Summary of the method: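 BHK tk'ts 13 cells stably co-expressing human calcitonin receptor and a CRE-luciferase reporter, seeded overnight at 37 °C. Bound tracer counted by scintillation after cold HBSS washes and NaOH/SDS lysis; IC₅₀ from one-site competition fit taken as receptor affinity.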

IC50: 5.62 nM
B1: [N-terminal(C20 diacid-gGlu), des1, 2L, 4G, 9V, 21S, 23Y, 30S, 31G, 32T, 33Y]mimylin (peptide)
peptide: {C20 diacid-γGlu}-LSGLSTAVLGRLSAELHELSTYPRTETGSGTY-NH2
SMILES: CC(C)C[C@H](NC(=O)CC[C@H](NC(=O)CCCCCCCCCCCCCCCCCCC(=O)O)C(=O)O)C(=O)N[C@@H](CO)C(=O)NCC(=O)N[C@@H](CC(C)C)C(=O)N[C@@H](CO)C(=O)N[C@H](C(=O)N[C@@H](C)C(=O)N[C@H](C(=O)N[C@@H](CC(C)C)C(=O)NCC(=O)N[C@@H](CCCNC(=N)N)C(=O)N[C@@H](CC(C)C)C(=O)N[C@@H](CO)C(=O)N[C@@H](C)C(=O)N[C@@H](CCC(=O)O)C(=O)N[C@@H](CC(C)C)C(=O)N[C@@H](Cc1c[nH]cn1)C(=O)N[C@@H](CCC(=O)O)C(=O)N[C@@H](CC(C)C)C(=O)N[C@@H](CO)C(=O)N[C@H](C(=O)N[C@@H](Cc1ccc(O)cc1)C(=O)N1CCC[C@H]1C(=O)N[C@@H](CCCNC(=N)N)C(=O)N[C@H](C(=O)N[C@@H](CCC(=O)O)C(=O)N[C@H](C(=O)NCC(=O)N[C@@H](CO)C(=O)NCC(=O)N[C@H](C(=O)N[C@@H](Cc1ccc(O)cc1)C(N)=O)[C@@H](C)O)[C@@H](C)O)[C@@H](C)O)[C@@H](C)O)C(C)C)[C@@H](C)O

IC50: 0.2 nM
B2: [N-terminal(C20 diacid-gGlu), des1, 4G, 9T, 15Q, 21Q, 23Y, 25P, 30S, 31G, 32T, 33Y]mimylin (peptide)
peptide: {C20 diacid-γGlu}-ASGLSTATLGRLSQELHELQTYPPTETGSGTY-NH2
SMILES: CC(C)C[C@H](NC(=O)CNC(=O)[C@H](CO)NC(=O)[C@H](C)NC(=O)CC[C@H](NC(=O)CCCCCCCCCCCCCCCCCCC(=O)O)C(=O)O)C(=O)N[C@@H](CO)C(=O)N[C@H](C(=O)N[C@@H](C)C(=O)N[C@H](C(=O)N[C@@H](CC(C)C)C(=O)NCC(=O)N[C@@H](CCCNC(=N)N)C(=O)N[C@@H](CC(C)C)C(=O)N[C@@H](CO)C(=O)N[C@@H](CCC(N)=O)C(=O)N[C@@H](CCC(=O)O)C(=O)N[C@@H](CC(C)C)C(=O)N[C@@H](Cc1c[nH]cn1)C(=O)N[C@@H](CCC(=O)O)C(=O)N[C@@H](CC(C)C)C(=O)N[C@@H](CCC(N)=O)C(=O)N[C@H](C(=O)N[C@@H](Cc1ccc(O)cc1)C(=O)N1CCC[C@H]1C(=O)N1CCC[C@H]1C(=O)N[C@H](C(=O)N[C@@H](CCC(=O)O)C(=O)N[C@H](C(=O)NCC(=O)N[C@@H](CO)C(=O)NCC(=O)N[C@H](C(=O)N[C@@H](Cc1ccc(O)cc1)C(N)=O)[C@@H](C)O)[C@@H](C)O)[C@@H](C)O)[C@@H](C)O)[C@@H](C)O)[C@@H](C)O

IC50: 0.312 nM
Binder: {C20 diacid-γGlu}-ASGLSTATLGRLSQELHELQTYPRTETGSGTY-NH2 [[N-terminal(C20 diacid-gGlu), des1, 4G, 9T, 15Q, 21Q, 23Y, 30S, 31G, 32T, 33Y]mimylin]

IC50: 1.83 nM
B3: [N-terminal(C20 diacid-gGlu), des1, 4G, 8L, 9V, 15Q, 21Q, 23Y, 30S, 31Q, 32T, 33Y]mimylin (peptide)
peptide: {C20 diacid-γGlu}-ASGLSTLVLGRLSQELHELQTYPRTETGSQTY-NH2
SMILES: CC(C)C[C@H](NC(=O)CNC(=O)[C@H](CO)NC(=O)[C@H](C)NC(=O)CC[C@H](NC(=O)CCCCCCCCCCCCCCCCCCC(=O)O)C(=O)O)C(=O)N[C@@H](CO)C(=O)N[C@H](C(=O)N[C@@H](CC(C)C)C(=O)N[C@H](C(=O)N[C@@H](CC(C)C)C(=O)NCC(=O)N[C@@H](CCCNC(=N)N)C(=O)N[C@@H](CC(C)C)C(=O)N[C@@H](CO)C(=O)N[C@@H](CCC(N)=O)C(=O)N[C@@H](CCC(=O)O)C(=O)N[C@@H](CC(C)C)C(=O)N[C@@H](Cc1c[nH]cn1)C(=O)N[C@@H](CCC(=O)O)C(=O)N[C@@H](CC(C)C)C(=O)N[C@@H](CCC(N)=O)C(=O)N[C@H](C(=O)N[C@@H](Cc1ccc(O)cc1)C(=O)N1CCC[C@H]1C(=O)N[C@@H](CCCNC(=N)N)C(=O)N[C@H](C(=O)N[C@@H](CCC(=O)O)C(=O)N[C@H](C(=O)NCC(=O)N[C@@H](CO)C(=O)N[C@@H](CCC(N)=O)C(=O)N[C@H](C(=O)N[C@@H](Cc1ccc(O)cc1)C(N)=O)[C@@H](C)O)[C@@H](C)O)[C@@H](C)O)[C@@H](C)O)C(C)C)[C@@H](C)O
